Reference: patent US20250129155A1 (INNOBATION BIO, published 2025)
Changes are numbered by the printed parent chain.

B1: Hu3A5(V1) antibody (antibody, V domains shown)
VH: EVQLVQSGAEVKKPGASVKVSCKASGYTFTSYWMHWMRQAPGQGLEWIGVIDPSDSYTSYNQKFQGRVTLTVDTSTSTAYMELSSLRSEDTAVYYCARGGKRAMDYWGQGTTVTVSS
VL: DVVMTQSPLSLPVTLGQPASISCRSSQSLVHSNGNTYLHWFQQRPGQSPRLLIYKVSNRFSGVPDRFSGSGSGTDFTLKISRVEAEDVGVYFCSQSTHVPFTFGGGTKLEIK
B2: Hu3A5 (V2) antibody (antibody, V domains shown)
VH: B1 VH
VL: B1 VL with F92Y
B3: Hu3A5 (V5) antibody (antibody, V domains shown)
VH: B1 VH with E1Q, M37V, I48M, L70M
VL: B1 VL
B4: Hu3A5 (V6) antibody (antibody, V domains shown)
VH: B1 VH with E1Q, M37V, I48M, L70M
VL: B1 VL with F92Y
B5: Hu3A5 (V3) antibody (antibody, V domains shown)
VH: B1 VH
VL: DVVMTQSPDSLAVSLGERATINCKSSQSLVHSNGNTYLHWYQQKPGQPPKLLIYKVSNRFSGVPDRFSGSGSGTDFTLTISSLQAEDVAVYFCSQSTHVPFTFGGGTKLEIK
B6: Hu3A5 (V4) antibody (antibody, V domains shown)
VH: B1 VH
VL: B5 VL with F92Y
B7: Hu3A5 (V7) antibody (antibody, V domains shown)
VH: B1 VH with E1Q, M37V, I48M, L70M
VL: B5 VL
B8: Hu3A5 (V8) antibody (antibody, V domains shown)
VH: B1 VH with E1Q, M37V, I48M, L70M
VL: B5 VL with F92Y
B9: Hu3A5 (V9) antibody (antibody, V domains shown)
VH: EVQLVQSGSELKKPGASVKVSCKASGYTFTSYWMHWMRQAPGQGLEWIGVIDPSDSYTSYNQGFTGRFVLSVDTSVSTAYLQISSLKAEDTAVYYCARGGKRAMDYWGQGTTVTVSS
VL: B1 VL
B10: Hu3A5(V10) antibody (antibody, V domains shown)
VH: B9 VH
VL: B1 VL with F92Y
notes: also called humanized 3A5(V10) antibody; humanized Hu3A5(V10) antibody
B11: Hu3A5(V13) antibody (antibody, V domains shown)
VH: B9 VH with E1Q, H35N, M37V, I48M, L70F
VL: B1 VL
B12: Hu3A5(V14) antibody (antibody, V domains shown)
VH: B9 VH with E1Q, H35N, M37V, I48M, L70F
VL: B1 VL with F92Y
B13: Hu3A5(V11) antibody (antibody, V domains shown)
VH: B9 VH
VL: B5 VL
B14: Hu3A5(V12) antibody (antibody, V domains shown)
VH: B9 VH
VL: B5 VL with F92Y
B15: Hu3A5(V15) antibody (antibody, V domains shown)
VH: B9 VH with E1Q, H35N, M37V, I48M, L70F
VL: B5 VL
B16: Hu3A5(V16) antibody (antibody, V domains shown)
VH: B9 VH with E1Q, H35N, M37V, I48M, L70F
VL: B5 VL with F92Y

The molecules below were run against CD47 on CD47-overexpressing breast cancer cell line MCF-7 (UniProt Q08722) (assay: flow cytometry on MCF-7 cells, PE anti-human CD47, 5 µl).
Chain of CD47 on CD47-overexpressing breast cancer cell line MCF-7 (Q08722 19-323 limits assumed): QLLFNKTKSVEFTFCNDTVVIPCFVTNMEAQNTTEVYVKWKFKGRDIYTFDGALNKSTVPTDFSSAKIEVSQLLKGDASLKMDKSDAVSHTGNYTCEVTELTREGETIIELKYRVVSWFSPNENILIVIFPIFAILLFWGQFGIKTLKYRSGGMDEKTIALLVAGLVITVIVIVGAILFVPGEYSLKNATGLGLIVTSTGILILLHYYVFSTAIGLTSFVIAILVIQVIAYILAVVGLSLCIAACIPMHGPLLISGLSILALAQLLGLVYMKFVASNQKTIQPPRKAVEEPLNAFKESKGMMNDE
“CD47 antibody (Biolegend PE anti-human CD47, cat #323108)” showed a Mean of 11900 and a Median of 11000.

What follows are molecules tested against T1, CD47 protein (Acrobiosystems, cat #CD7-HA2E9) (UniProt Q08722 19-139) (assay: ELISA, CD47 protein coated 100 ng/well, 0.8 µg antibody per well).
T1 construct: Bought recombinant protein coated on the ELISA plate at 100 ng/well; also called CD47 antigen; CD47 peptide
T1 sequence (Q08722 19-139 limits assumed): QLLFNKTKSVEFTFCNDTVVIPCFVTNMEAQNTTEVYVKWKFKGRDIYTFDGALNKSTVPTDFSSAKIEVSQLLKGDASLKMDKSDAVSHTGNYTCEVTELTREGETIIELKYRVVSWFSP
Protocol: The purified 0.8 μg humanized antibody was treated in each well, and then reacted at room temperature for 2 hours, and then washed 3 times with 1×PBST. Secondary antibody ([…], 1:5,000) was treated and reacted at room temperature for 30 minutes, washed 3 times with 1×PBST, and then treated with TMB for color development and reacted at room temperature for 5 minutes. Finally, the reaction was terminated by treatment with a stop solution of 1 N H₂SO₄, and then the absorbance was measured at 450 nm.
B1 gave an OD450 measurements of 2.58 OD450.
B2 showed an OD450 measurements of 2.69 OD450.
B3 showed an OD450 measurements of 2.57 OD450.
With B4 the OD450 measurements was 2.62 OD450.
B5 showed an OD450 measurements of 2.54 OD450.
Molecule B6 has an OD450 measurements of 2.74 OD450.
For B7, the OD450 measurements was 2.67 OD450.
B8 gave an OD450 measurements of 2.45 OD450.
In the case of B9, the OD450 measurements is reported as 2.65 OD450.
B10 was tested, and the OD450 measurements was 2.81 OD450.
B11 was tested, and the OD450 measurements was 0.0966 OD450.
B12 gave an OD450 measurements of 0.147 OD450.
Work on B13 yielded an OD450 measurements of 2.81 OD450.
Work on B14 yielded an OD450 measurements of 2.85 OD450.
B15 gave an OD450 measurements of 0.111 OD450.
With B16 the OD450 measurements was 0.106 OD450.

These molecules were tested against CD47 on CD47-overexpressing breast cancer cell line MCF-7 (UniProt Q08722) (assay: flow cytometry on MCF-7 cells, secondary antibody alone (background control)).
With “PE-conjugated goat anti-mouse IgG antibody (Biolegend Inc., cat #405307)” the Mean was 80 and the Median was 73.9.
